Source: PMC8655031, “Loss of peptidase D binding restores the tumor suppressor functions of oncogenic p53 mutants” (Communications Biology, 2021)

Tests used:
[1] = biological target: T1, recombinant human p53, N-terminal His tagged (human, UniProt P04637 1-393); assay: cross-linking; PEPD (801 nM) and p53 or p53^R175H (114 nM), alone or together, in PBS pH 7.4 for 15 min at RT, then 2 mM BS3 for 30 min at RT; WB on 5% SDS-PAGE; conditions: both partners purified
T1 construct: human p53 from pET15b-His-human p53; also called His-human p53; source: E. coli BL21-AI, purified (Ni-NTA)

[2] = biological target: the molecule itself; assay: as above

B1: recombinant human PEPD (peptidase D), C-terminal His tagged (enzyme, UniProt P12955 1-493, looked up)
chain: MAAATGPSFWLGNETLKVPLALFALNRQRLCERLRKNPAVQAGSIVVLQGGEETQRYCTDTGVLFRQESFFHWAFGVTEPGCYGVIDVDTGKSTLFVPRLPASHATWMGKIHSKEHFKEKYAVDDVQYVDEIASVLTSQKPSVLLTLRGVNTDSGSVCREASFDGISKFEVNNTILHPEIVECRVFKTDMELEVLRYTNKISSEAHREVMKAVKVGMKEYELESLFEHYCYSRGGMRHSSYTCICGSGENSAVLHYGHAGAPNDRTIQNGDMCLFDMGGEYYCFASDITCSFPANGKFTADQKAVYEAVLRSSRAVMGAMKPGVWWPDMHRLADRIHLEELAHMGILSGSVDAMVQAHLGAVFMPHGLGHFLGIDVHDVGGYPEGVERIDEPGLRSLRTARHLQPGMVLTVEPGIYFIDHLLDEALADPARASFLNREVLQRFRGFGGVRIEEDVVVTDSGIELLTCVPRTVEEIEACMAGCDKAFTPFSGPK
notes: human peptidase D (PEPD, prolidase), from pBAD/TOPO-human PEPD-His; the discussion speaks of PEPD as 493 aa; also called prolidase; PEPD-His; source: E. coli One Shot TOP10, purified (Ni-NTA)
stoichiometry N [1]: 1 PEPD dimer per p53 tetramer | stoichiometry N [2]: 2
